Laboratory results as given in patent publication US20250298041A1 (published 2025).

What was measured:
[1] = target: T1, recombinant AIM-A1 protein (human VWF residues 1238-1493) (human, multiple O-linked sialylated core 1 glycans (produced from transfected HEK293F cells)); assay: biolayer interferometry
T1 construct: Any tags are as in that entry; also called glycosylated AIM-A1; human VWF AIM-A1 protein

[2] = target: T2, Plasma-derived VWF (pdVWF, Alphanate) (human, UniProt P04275 764-2813); assay: ELISA: binding of pdVWF (0.1 µg/ml) to immobilised LBD-WT induced by a titration of the nanobody; EC50 of nanobody-induced binding of pdVWF to immobilized LBD
T2 construct: Commercial multimeric VWF concentrate; also called plasma-purified VWF; full-length VWF

[3] = target: T1, recombinant AIM-A1 protein (human VWF …); assay: apparent affinity, method not named; glycosylated AIM-A1 from HEK293F cells; glycosylated AIM-A1 from HEK293F cells; apparent affinity
[4] = target: plasma VWF (normal pooled human plasma) (human, UniProt P04275 764-2813); assay: cell-based or functional assay
[5] = target: T2, Plasma-derived VWF (pdVWF, Alphanate); assay: ELISA, plate coated with 100 nM nanobody, pdVWF titrated; apparent affinity, hyperbolic fit; apparent Kd of direct binding to pdVWF
[6] = target: T1, recombinant AIM-A1 protein (human VWF …); assay: method not given; nanobody from E. coli on AIM-A1
[7] = target: T2, Plasma-derived VWF (pdVWF, Alphanate); assay: method not stated; monomeric recombinant VHH81; plasma-derived VWF
purified VWF = target: T3, purified VWF (UniProt P04275 764-2813, limits assumed); assay: method not stated; monomeric recombinant VHH81; purified VWF
T3 construct: It may be a recombinant fragment

Row | Binder | Kd [1] | EC50 [2] | Kd [3] | EC50 of extent of platelet aggregation as a function of nanobody concentration [4] | EC50 of platelet aggregation in stirred human platelet rich plasma [4] | Kd [5] | Kd [6] | Kd [7] | Kd (purified VWF)
1 | Cd1D12 (VHH, Llama nanobody produced in E. coli with a C-terminal His tag; also called 6D12) VHH: QVQLVESGGGLVQPGGSLRLSCAASGFTLDDYAIGWFRQVPGKERTFVGAINWSGTKAYYAGSVKGRSTVRRDNAKNTVYLQMNSLKPEDTAVYYCATHRGLHYGGINYSQKDEYDYWGQGTQVTVSS | 76 nM | 42 nM | ~10 nM | ~100 nM | ~57 nM | 1.12 nM | 31 nM | – | –
2 | Cd1C4 (VHH, Llama nanobody produced in E. coli with a C-terminal His tag; also called 6C4) VHH: QVQLVESGGGLVQTGGSLTLSCAASGRAFSQYSVGWFRQAPGKERTFVAAINWSGTKAYYAGSVKGRSTISRDRAKTTVFLQMNSLKPEDTAVYYCATHRGLYYEGTNYSQKDEYDYWGQGTQVTVSS | – | 163 nM | – | – | ~167 nM | 5.4 nM | 120 nM | – | –
3 | Cd1C11 (VHH, Llama nanobody produced in E. coli with a C-terminal His tag; also called 6C11) VHH: QVQLVESGGGLVQTGGSLRLSCAASGRTVSHYSVGWFRQAPGKERVFVGAINWSGDKAYYVGSVKGRSTIRRDNAKNTVYLQMNSLKPEDTAVYYCATRRGLYYEGTDYSRKDEYDYWGQGTQVTVSS | 29 nM | 215 nM | – | ~100 nM | ~100 nM | 3.68 nM | 13.5 nM | – | –
4 | VHH81 (VHH, Monomeric recombinant VHH81 produced in bacteria; The tags are not included here; also called PMP12A2h1; mono ISVD of caplacizumab) VHH: EVQLVESGGGLVQPGGSLRLSCAASGRITSYNPMGWFRQAPGKGRELVAAISRTGGSTYYPDSVEGRFTISRDNAKRMVYLQMNSLRAEDTAVYYCAAAGVRAEDGRVRTLPSEYTFWGQGTQVTVSS | – | – | – | – | – | – | – | ~20 nM | ~20 nM
